According to patent US20260201058A1 (SICHUAN HUIYU PHARMACEUTICAL, published 2026):
Like-named read-outs stand apart in the source and are kept apart here.

Assays:
[1] = target: T1, monkey PD-L1 (Cyno-PD-L1) on cells (monkey (cyno)); test: flow cytometry competition on 293F-cyno PD-L1 cells, competitor monkey PD-1-hFc 1.25 ug/mL
T1 construct: whole, on cells; also called CHO-cynoPDL1; 293F-cyno PD-L1 cells
Description: (§1) After washing with PBS, a flow cytometer was used for detection. IC₅₀ was fitted with experimental data by GraphPad Prism.

[2] = target: T2, human PD-L1 on GS-C2 cells (cells overexpressing human PD-L1, GenScript, M00613) (human, UniProt Q9NZQ7 19-290); test: flow cytometry on GS-C2 cells
T2 construct: whole, on cells; also called human PD-L1 cells
Procedure: Then PE-labeled goat anti-Flag fluorescent secondary antibody was added, and incubated on ice for 30 min. After washing with PBS, a flow cytometer was used for detection. EC₅₀ was fitted with the experimental data by GraphPad Prism.

[3] = target: T2, human PD-L1 on GS-C2 cells (cells …); test: flow cytometry competition on GS-C2 cells, competitor human PD-1-mFc 1.25 ug/mL
Description: as §1

[4] = target: T3, human PD-L1 protein (ACRO, PD1-H5258) (human, UniProt Q9NZQ7 19-238); test: SPR (Carterra LSA), nanobody on NiHC200M chip via His-Tag, PD-L1 as analyte
T3 construct: Bought protein; also called Human PDL1-Fc
Procedure: The measurement was conducted using a capture kinetics process. The test antibody was immobilized on the surface of the NiHC200M chip via His-Tag. After several rounds of blank buffer injection and stabilizing the detection baseline, human PD-L1 protein was injected as the analyte. Each round of injection consisted of 2 minutes of baseline, 8 minutes of binding, and 20 minutes of dissociation. After subtracting the reference point and zero concentration signal (Double Reference) from the original measurement data, the binding curve was fitted by Carterra LSA Kinetics software and the kinetic parameters were calculated.

[5] = target: T2, human PD-L1 on GS-C2 cells (cells …); test: cell-based or functional assay
[6] = target: T2, human PD-L1 on GS-C2 cells (cells …); test: flow cytometry on GS-C2 cells; remark: listed apart in the source
Description: (§2) After washing with PBS, a flow cytometer was used for detection.

[7] = target: T2, human PD-L1 on GS-C2 cells (cells …); test: cell-based or functional assay; remark: listed apart in the source
[8] = target: T2, human PD-L1 on GS-C2 cells (cells …); test: flow cytometry competition on GS-C2 cells, competitor human PD-1-mFc 1.25 ug/mL; remark: listed apart in the source
Description: as §2

[9] = target: T1, monkey PD-L1 (Cyno-PD-L1) on cells; test: flow cytometry on 293F-cyno PD-L1 cells
Description: as §2

[10] = target: T4, monkey PD-L1 protein (Kactus Biosystems, PDL-CM210) (monkey); test: Carterra HC30M chip, antibody captured via anti-DYKDDDDK, PD-L1 as analyte
T4 construct: Bought protein; also called Monkey PDL1-Fc
Procedure: (§3) The anti-[…] antibody was bound to the HC30M chip via amino coupling, then […] of humanized PD-L1 single-domain antibody was captured. After the baseline was stabilized, gradient diluted human PD-L1 protein (ACRO, PD1-H5258) and monkey PD-L1 protein (Kactus Biosystems, PDL-CM210) (starting from 100 nM, gradient dilution) were flowed over the chip from low to high concentrations, with a binding time of 8 minutes and a dissociation time of 20 minutes. Kinetic constants were obtained by fitting with Carteria software.

[11] = target: T3, human PD-L1 protein (ACRO, PD1-H5258); test: as above
Procedure: as §3

[12] = target: T4, monkey PD-L1 protein (Kactus …); test: Carterra HC30M chip, nanobody captured via anti-DYKDDDDK, PD-L1 as analyte
Description: (§4) Kinetic constants were obtained by fitting with Carteria software.

[13] = target: T3, human PD-L1 protein (ACRO, PD1-H5258); test: as above
Description: as §4

[14] = target: T5, mouse PD-L1 protein (ACRO, PD1-M5251) (mouse, UniProt Q9EP73 19-238); test: as above
T5 construct: Bought protein; also called Mouse PDL1-Fc
Description: as §4

[15] = target: T6, mouse PD-L1 on CHO-mPDL1 cells (mouse, UniProt Q9EP73 19-290); test: flow cytometry competition on CHO-mPDL1 cells, competitor mouse PD-1-hFc 1.25 ug/mL
T6 construct: whole, on cells
Procedure: (§5) CHO-huPDL1, CHO-mPDL1, and CHO-cynoPDL1 cells were respectively taken, washed with PBS, and resuspended with 1% BSA. Then 1×10⁵ cells per well were added to a 96-well V-bottom plate. […] After washing with PBS, PE anti-human Fc (Biolegend, 410708) was added and incubated on ice for 30 min. After washing with PBS, a flow cytometer was used for detection. IC₅₀ was fitted with experimental data by GraphPad Prism.

[16] = target: T1, monkey PD-L1 (Cyno-PD-L1) on cells; test: flow cytometry competition on CHO-cynoPDL1 cells, competitor monkey PD-1-hFc 1.25 ug/mL
Procedure: as §5

[17] = target: T7, human PD-L1 on CHO-huPDL1 cells (human, UniProt Q9NZQ7 19-290); test: flow cytometry competition on CHO-huPDL1 cells, competitor human PD-1-hFc 1.25 ug/mL
T7 construct: whole, on cells; also called CHO-hPDL1
Procedure: as §5

T3 sequence (Q9NZQ7 19-238): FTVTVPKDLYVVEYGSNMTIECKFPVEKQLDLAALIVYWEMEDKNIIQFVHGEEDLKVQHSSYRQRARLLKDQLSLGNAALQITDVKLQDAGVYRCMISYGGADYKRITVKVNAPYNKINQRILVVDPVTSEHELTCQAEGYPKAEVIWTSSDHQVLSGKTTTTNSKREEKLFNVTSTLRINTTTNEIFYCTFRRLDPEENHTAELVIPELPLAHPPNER
T2 sequence (Q9NZQ7 19-290, one chain of several): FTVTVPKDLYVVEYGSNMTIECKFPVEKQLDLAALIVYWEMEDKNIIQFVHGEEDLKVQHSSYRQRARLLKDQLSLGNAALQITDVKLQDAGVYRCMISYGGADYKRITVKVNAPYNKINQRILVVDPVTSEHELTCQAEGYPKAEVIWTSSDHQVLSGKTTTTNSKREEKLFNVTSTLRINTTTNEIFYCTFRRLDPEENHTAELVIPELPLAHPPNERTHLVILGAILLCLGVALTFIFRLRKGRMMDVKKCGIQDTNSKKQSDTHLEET
T5 sequence (Q9EP73 19-238): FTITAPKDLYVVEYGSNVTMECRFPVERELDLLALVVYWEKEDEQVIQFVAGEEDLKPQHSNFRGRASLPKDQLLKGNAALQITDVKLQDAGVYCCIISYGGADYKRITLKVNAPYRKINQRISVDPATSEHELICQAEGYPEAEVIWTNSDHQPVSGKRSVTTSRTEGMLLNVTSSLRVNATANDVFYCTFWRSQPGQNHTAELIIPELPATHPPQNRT
T6 sequence (Q9EP73 19-290): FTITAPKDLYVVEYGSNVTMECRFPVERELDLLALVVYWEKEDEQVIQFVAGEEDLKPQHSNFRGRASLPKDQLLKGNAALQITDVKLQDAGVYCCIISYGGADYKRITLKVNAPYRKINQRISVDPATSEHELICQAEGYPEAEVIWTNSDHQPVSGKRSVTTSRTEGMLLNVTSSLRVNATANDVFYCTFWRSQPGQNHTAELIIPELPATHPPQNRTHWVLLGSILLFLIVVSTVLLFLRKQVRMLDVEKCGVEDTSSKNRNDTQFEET
T7 sequence (Q9NZQ7 19-290): as the sequence (Q9NZQ7 19-290, one chain of several) above

B1: 260-7-B11 nanobody (VHH)
VHH: EVQLVESGGGLVQAGGSLRLSCAASGGTFLTYGMGWFRQAPGKEREFVAAINWSGSMTNYADSVKGRSTISRDNARNTVYLQMISLKPEDTAVYYCAAKTGAVAYIQKNEYDYWGQGTQVTVSS
notes: Prokaryotically expressed VHH
IC50 [1]: 0.627 nM
EC50 [2]: 0.739 nM
IC50 [3]: 0.396 nM
Kd [4]: 0.0243 nM
EC50 (nM), blocking of T cell PD-1/PD-L1 signaling pathway (GS-C2 cells with Jurket-NFAT-PD1 cells, luciferase) [5]: 15.3 nM

B2: 7B11 (Fc fusion)
chain: EVQLVESGGGLVQAGGSLRLSCAASGGTFLTYGMGWFRQAPGKEREFVAAINWSGSMTNYADSVKGRSTISRDNARNTVYLQMISLKPEDTAVYYCAAKTGAVAYIQKNEYDYWGQGTQVTVSSGGGGSGGGGSDKTHTCPPCPAPEAAGAPSVFLFPPKPKDTLMISRTPEVTCVVVDVSHEDPEVKFNWYVDGVEVHNAKTKPREEQYNSTYRVVSVLTVLHQDWLNGKEYKCAVSNKALPAPIEKTISKAKGQPREPQVYTLPPSRDELTKNQVSLTCLVKGFYPSDIAVEWESNGQPENNYKTTPPVLDSDGSFFLYSKLTVDKSRWQQGNVFSCSVMHEALHNHYTQKSLSLSP
notes: also called 7B11 VHH-Fc antibody (260-7-B11 fused to human IgG1 Fc)
EC50 [6]: 0.642 nM
EC50 (nM), blocking of T cell PD-1/PD-L1 signaling pathway (GS-C2 cells with Jurket-NFAT-PD1 cells, luciferase) [7]: 2.11 nM
IC50 [8]: 0.221 nM
EC50 [9]: 1.58 nM

B3: 7B11_huGS_HM4 (Fc fusion)
chain: EVQLVESGGGLVQPGGSLRLSCAASGGTFLTYGMGWFRQAPGKGLEFVAAINWSGSMTNYADSVKGRFTISRDNAKNTVYLQMNSLRAEDTAVYYCAAKTGAVAYIQKNEYDYWGQGTQVTVSSGGGGSGGGGSDKTHTCPPCPAPEAAGAPSVFLFPPKPKDTLMISRTPEVTCVVVDVSHEDPEVKFNWYVDGVEVHNAKTKPREEQYNSTYRVVSVLTVLHQDWLNGKEYKCAVSNKALPAPIEKTISKAKGQPREPQVYTLPPSRDELTKNQVSLTCLVKGFYPSDIAVEWESNGQPENNYKTTPPVLDSDGSFFLYSKLTVDKSRWQQGNVFSCSVMHEALHNHYTQKSLSLSP
notes: Humanized VHH-Fc antibody
Kd [10]: 0.0326 nM
Kd [11]: 0.035 nM
EC50 [6]: 0.729 nM
EC50 (nM), blocking of T cell PD-1/PD-L1 signaling pathway (GS-C2 cells with Jurket-NFAT-PD1 cells, luciferase) [7]: 1.97 nM
IC50 [8]: 0.24 nM
EC50 [9]: 2 nM

B4: 4A7 nanobody (VHH)
VHH: EVQLVESGGGLVQAGDSLRLGCAASGRTFSTNVMGWFRQAPGKEREFVSAISRAGSTYSADSVKGRFTISRDNAENTVYLQMNSLKPEDTAVYYCAAGSSPTAIFGKSGMDYWGKGTLVTVSS
notes: Prokaryotically expressed VHH; also called anti-PD-L1 nanobody 4A7
Kd [12]: 221 nM
Kd [13]: 147 nM
Kd [14]: 99.1 nM
IC50 [15]: 1.83 nM
IC50 [16]: 3.55 nM
IC50 [17]: 1.35 nM
